Where no end group is shown, it is not given here.
T1: TP-24 peptide (human, also: biotinylated, site not given here)
T1 construct: 15-mer of human TDP-43 from the library spanning aa 199-285; captured on streptavidin plates
T1 peptide: REFFSQYGDVMDVFI

T2: TP-25 peptide (human, also: biotinylated, site not given here)
T2 construct: 15-mer of human TDP-43 from the library spanning aa 199-285; captured on streptavidin plates
T2 peptide: VMDVFIPKPFRAFAF

T3: TDP-215 peptide (human)
T3 construct: same ELISA method as for the biotinylated 15-mers
T3 peptide: GDVMDVFI

T4: TP-31 (also: biotinylated, site not given here)
T4 construct: also called TP-31 peptide
T4 peptide: ERSGRFGGNPGGFGN

T5: TP-30 (also: biotinylated, site not given here)
T5 construct: also called TP-30 peptide
T5 peptide: PKHNSNRQLERSGRF

T6: TP-28 (also: biotinylated, site not given here)
T6 construct: also called TP-28 peptide
T6 peptide: CGEDLIIKGISVHIS

T7: TP-27 (also: biotinylated, site not given here)
T7 construct: also called TP-27 peptide
T7 peptide: ADDQIAQSLCGEDLI

T8: TP-26 (also: biotinylated, site not given here)
T8 construct: also called TP-26 peptide
T8 peptide: FRAFAFVTFADDQIA

T9: TP-29 (also: biotinylated, site not given here)
T9 construct: also called TP-29 peptide
T9 peptide: ISVHISNAEPKHNSN

T10: TDP-3 peptide (human)
T10 construct: Irrelevant control peptide; conjugated to Luminex beads in the assay; also called TDP-43 aa 310-370; irrelevant target
T10 peptide: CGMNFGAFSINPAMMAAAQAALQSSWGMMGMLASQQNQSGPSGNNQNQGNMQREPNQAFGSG

T11: TDP-211 peptide (human)
T11 construct: 8-mer of human TDP-43; same ELISA method as for the biotinylated 15-mers
T11 peptide: FSQYGDVM

T12: TDP-213 peptide (human)
T12 construct: 8-mer of human TDP-43; same ELISA method as for the biotinylated 15-mers
T12 peptide: QYGDVMDV

T13: TDP-223 peptide (human)
T13 construct: 8-mer of human TDP-43; same ELISA method as for the biotinylated 15-mers
T13 peptide: PKPFRAFA

T14: TDP-221 peptide (human)
T14 construct: 8-mer of human TDP-43; same ELISA method as for the biotinylated 15-mers
T14 peptide: FIPKPFRA

T15: TDP-224 peptide (human)
T15 construct: 8-mer of human TDP-43; same ELISA method as for the biotinylated 15-mers
T15 peptide: KPFRAFAF

T16: TDP-212 peptide (human)
T16 construct: 8-mer of human TDP-43; same ELISA method as for the biotinylated 15-mers
T16 peptide: SQYGDVMD

T17: TDP-217 peptide (human)
T17 construct: 8-mer of human TDP-43; same ELISA method as for the biotinylated 15-mers
T17 peptide: VMDVFIPK

T18: TDP-218 peptide (human)
T18 construct: 8-mer of human TDP-43; same ELISA method as for the biotinylated 15-mers
T18 peptide: MDVFIPKP

T19: TDP-219 peptide (human)
T19 construct: 8-mer of human TDP-43; same ELISA method as for the biotinylated 15-mers
T19 peptide: DVFIPKPF

T20: TDP-214 peptide (human)
T20 construct: 8-mer of human TDP-43; same ELISA method as for the biotinylated 15-mers
T20 peptide: YGDVMDVF

T21: TDP-220 peptide (human)
T21 construct: 8-mer of human TDP-43; same ELISA method as for the biotinylated 15-mers
T21 peptide: VFIPKPFR

T22: TDP-210 peptide (human)
T22 construct: 8-mer of human TDP-43; same ELISA method as for the biotinylated 15-mers
T22 peptide: FFSQYGDV

T23: TDP-222 peptide (human)
T23 construct: 8-mer of human TDP-43; same ELISA method as for the biotinylated 15-mers
T23 peptide: IPKPFRAF

T24: TDP-216 peptide (human)
T24 construct: 8-mer of human TDP-43; same ELISA method as for the biotinylated 15-mers
T24 peptide: DVMDVFIP

T25: TDP-1 peptide (human)
T25 construct: Immunogen peptide; conjugated to Luminex beads in the assay; also called TDP-43 aa 212-272
T25 peptide: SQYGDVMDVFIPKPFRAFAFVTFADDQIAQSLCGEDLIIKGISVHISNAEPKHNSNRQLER


Experiments:
TP-24 peptide = target: T1, TP-24 peptide; assay: indirect ELISA, biotinylated 15-mer peptide on streptavidin plate, hybridoma supernatant
Method: (§1) Serum-free supernatants were harvested from stable hybridomas. The supernatants containing antibodies of interest were then screened by an indirect ELISA assay to determine epitopes. Epitopes were mapped using a library of TDP-43 15-mer peptides. Briefly, 96-well streptavidin-coated 96-well ELISA plates were incubated with 5 μg/mL of biotinylated 15-mer peptides spanning the amino acids (aa) 199-285 of human TDP-43 with 9 aa offset and 6 aa overlap. Plates were washed thoroughly with 0.05% Tween-20/PBS and then blocked with 1% bovine serum albumin (BSA) in 0.05% Tween-20/PBS for 1 hour at 37° C. The antibody contained in the hybridoma supernatant was then added at the indicated dilutions, and incubated for 2 hours at 37° C. after which the plates were washed as described previously. An AP-conjugated anti-mouse IgG secondary antibody (Jackson ImmunoResearch Laboratories, United Kingdom) was added at 1/1000 dilution in 0.05% Tween-20/PBS for 1 hour at 37° C. After the final wash, plates were incubated with pNPP (Sigma-Aldrich, Switzerland) an AP substrate solution, and read at 405 nm using an ELISA plate reader (Tecan).

TP-25 peptide = target: T2, TP-25 peptide; assay: as above
Method: as §1

TDP-215 peptide = target: T3, TDP-215 peptide; assay: indirect ELISA, 8-mer peptide library, OD 405 nm
Method: as §1
(§2) Furthermore, antibodies were tested using an indirect ELISA on a peptide library of 8-mer peptides with 7 aa overlap covering the sequence of human TDP-43 from aa 210 to aa 231, using the same ELISA method as describe previously in this section.

TP-31 = target: T4, TP-31; assay: indirect ELISA, biotinylated 15-mer on streptavidin plate, hybridoma supernatant
Method: as §1

TP-30 = target: T5, TP-30; assay: as above
Method: as §1

TP-28 = target: T6, TP-28; assay: as above
Method: as §1

TP-27 = target: T7, TP-27; assay: as above
Method: as §1

TP-26 = target: T8, TP-26; assay: as above
Method: as §1

TP-29 = target: T9, TP-29; assay: as above
Method: as §1

BSA = target: T26, BSA (bovine, UniProt P02769); assay: indirect ELISA, control coat in the 15-mer series, hybridoma supernatant
T26 construct: not specified; also called bovine serum albumin
T26 sequence (P02769 25-607 limits assumed): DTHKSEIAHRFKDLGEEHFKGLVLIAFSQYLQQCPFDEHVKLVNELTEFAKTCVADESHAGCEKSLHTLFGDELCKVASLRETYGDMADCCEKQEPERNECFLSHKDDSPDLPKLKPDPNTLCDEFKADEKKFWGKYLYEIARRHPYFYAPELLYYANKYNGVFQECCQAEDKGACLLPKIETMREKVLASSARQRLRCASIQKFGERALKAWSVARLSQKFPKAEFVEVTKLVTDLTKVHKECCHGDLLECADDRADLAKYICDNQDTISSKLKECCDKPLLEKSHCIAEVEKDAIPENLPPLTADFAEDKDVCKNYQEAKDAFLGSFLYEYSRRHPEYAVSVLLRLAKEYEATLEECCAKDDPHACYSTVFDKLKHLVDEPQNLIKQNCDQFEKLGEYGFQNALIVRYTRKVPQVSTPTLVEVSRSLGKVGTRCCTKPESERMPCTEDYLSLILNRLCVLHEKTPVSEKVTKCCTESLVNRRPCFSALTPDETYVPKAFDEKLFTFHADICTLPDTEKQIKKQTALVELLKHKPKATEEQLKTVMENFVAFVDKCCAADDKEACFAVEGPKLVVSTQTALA

TDP-3 peptide = target: T10, TDP-3 peptide; assay: Luminex bead assay, TDP-3 peptide beads (irrelevant target)
TDP-211 peptide = target: T11, TDP-211 peptide; assay: indirect ELISA, 8-mer peptide library
Method: as §1, §2

TDP-213 peptide = target: T12, TDP-213 peptide; assay: indirect ELISA, 8-mer peptide library
Method: as §1, §2

TDP-223 peptide = target: T13, TDP-223 peptide; assay: indirect ELISA, 8-mer peptide library
Method: as §1, §2

TDP-221 peptide = target: T14, TDP-221 peptide; assay: indirect ELISA, 8-mer peptide library
Method: as §1, §2

TDP-224 peptide = target: T15, TDP-224 peptide; assay: indirect ELISA, 8-mer peptide library
Method: as §1, §2

TDP-212 peptide = target: T16, TDP-212 peptide; assay: indirect ELISA, 8-mer peptide library
Method: as §1, §2

TDP-217 peptide = target: T17, TDP-217 peptide; assay: indirect ELISA, 8-mer peptide library
Method: as §1, §2

TDP-218 peptide = target: T18, TDP-218 peptide; assay: indirect ELISA, 8-mer peptide library
Method: as §1, §2

TDP-219 peptide = target: T19, TDP-219 peptide; assay: indirect ELISA, 8-mer peptide library
Method: as §1, §2

TDP-214 peptide = target: T20, TDP-214 peptide; assay: indirect ELISA, 8-mer peptide library
Method: as §1, §2

TDP-220 peptide = target: T21, TDP-220 peptide; assay: indirect ELISA, 8-mer peptide library
Method: as §1, §2

TDP-210 peptide = target: T22, TDP-210 peptide; assay: indirect ELISA, 8-mer peptide library
Method: as §1, §2

TDP-222 peptide = target: T23, TDP-222 peptide; assay: indirect ELISA, 8-mer peptide library
Method: as §1, §2

TDP-216 peptide = target: T24, TDP-216 peptide; assay: indirect ELISA, 8-mer peptide library
Method: as §1, §2

TDP-1 peptide = target: T25, TDP-1 peptide; assay: Luminex bead assay, antibody serial dilution, TDP-1 peptide beads
[1] = target: T27, recombinant human full-length TDP-43 (human, UniProt Q13148 1-414); assay: SPR avidity (Biacore T200), TDP-43 monomer immobilised, antibody as analyte, 1:1 model
T27 construct: Recombinant full-length protein; also called FL TDP-43; recFL TDP-43
T27 sequence (Q13148 whole entry): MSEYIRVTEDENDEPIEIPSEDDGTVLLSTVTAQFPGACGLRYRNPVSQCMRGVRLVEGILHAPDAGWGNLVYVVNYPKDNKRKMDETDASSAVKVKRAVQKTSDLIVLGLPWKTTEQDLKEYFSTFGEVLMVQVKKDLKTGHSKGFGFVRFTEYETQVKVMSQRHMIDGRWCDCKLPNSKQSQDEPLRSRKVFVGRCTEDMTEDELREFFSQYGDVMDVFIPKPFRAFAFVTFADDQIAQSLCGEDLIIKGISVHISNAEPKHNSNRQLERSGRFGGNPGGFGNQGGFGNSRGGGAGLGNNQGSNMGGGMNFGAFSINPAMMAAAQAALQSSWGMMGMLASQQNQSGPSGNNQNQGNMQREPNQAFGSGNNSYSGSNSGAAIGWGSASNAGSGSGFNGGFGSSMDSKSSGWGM
Method: Avidity measurements were performed on an SPR instrument (Biacore T200, GE Healthcare Life Sciences) using CM5 Series S sensor chips. Recombinant human FL TDP-43 monomers or aggregated recombinant human FL TDP-43 was immobilized on a CM5 chip using amine coupling, injecting at a flow rate of 5 μl/min for 420 seconds. Conditions were optimized so that less than 200 RU protein was immobilized. Binding of the antibodies and the control antibody (2E2-D3) were obtained by injecting at: 1.37, 4.11, 12.33, 37, 111, and 333 nM in 1×PBS P+ at a flow rate of 50 μl/min for 90 s contact time and 600 s dissociation phase, with three regeneration cycles of the ligand surface by 10 mM Glycine-HCl (pH 1.7). Kinetics were analyzed using a 1:1 fitting model (see FIG. 8).

[2] = target: T27, recombinant human full-length TDP-43; assay: Luminex bead assay, antibody serial dilution, FL TDP-43 beads

OD (TP-24 peptide) | OD (TP-25 peptide) | binding result (TDP-215 peptide) | binding result (TP-31) | binding result (TP-30) | binding result (TP-28) | binding result (TP-27) | binding result (TP-26) | binding result (TP-29) | binding result (BSA) | binding result (TDP-3 peptide) | binding result (TDP-211 peptide) | binding result (TDP-213 peptide) | binding result (TDP-223 peptide) | binding result (TDP-221 peptide) | binding result (TDP-224 peptide) | binding result (TDP-212 peptide) | binding result (TDP-217 peptide) | binding result (TDP-218 peptide) | EC50 (TDP-1 peptide) [nM] | Binder | also measured
3.2 O.D. (405 nm) | 1.2 O.D. (405 nm) | binds | no binding | no binding | no binding | no binding | no binding | no binding | no binding | no binding | no binding | no binding | no binding | no binding | no binding | no binding | no binding | no binding | < 0.01 | ACI-7062-412E12-Ab1 (antibody, IgG1, V domains shown, also called 412E12A2; clone 10) VH: DVQLVESGGGLVQPGGSRRLSCAASGFTFSRFGMHWVRQAPEKGLEWVAYIRSGSDIIYYADSVKGRFTISRDNPENTLFLQMTSLRSEDTAMYYCARSGTTVPFDYWGQGTSLTVSS VL: DIVMTQSPSSLAMSVGQKVTMSCKSSQSLLNSGDQKNYLAWYQQKPGQSPELLLYFASTRASGVPDRFIGSGSGTDFSLTISSVQAEDLADYFCQQHYSIPLTFGAGTKLELKR | binding result (TDP-219 peptide): no binding; binding result (TDP-214 peptide): no binding; binding result (TDP-220 peptide): no binding; binding result (TDP-210 peptide): no binding; binding result (TDP-222 peptide): no binding; binding result (TDP-216 peptide): no binding
3.9 O.D. (405 nm) | 1.2 O.D. (405 nm) |  | no binding | no binding | no binding | no binding | no binding | no binding | no binding | no binding |  |  |  |  |  |  |  |  | < 0.01 | ACI-7062-415H10-Ab2 (antibody, IgG3, V domains shown, also called 415H10B7; clone 17) VH: DVQLVESGGGLVQPGGSRKLSCAASGFTFSSFGMHWVRQAPEKGLEWVAYISSGSSNIYYTDTVKGRFTISRDNPKNTLFLQMTSLRSEDTAIYYCARSGTTVPFDYWGQGTTLTVSS VL: not shown | Kd [1]: 1.1 nM; EC50 [2]: 0.16 nM
3.9 O.D. (405 nm) | 1.2 O.D. (405 nm) | binds | no binding | no binding | no binding | no binding | no binding | no binding | no binding | no binding | no binding | no binding | no binding | no binding | no binding | no binding | no binding | no binding | < 0.01 | ACI-7062-414A5-Ab1 (antibody, IgG2a, V domains shown, also called 414A5D2; clone 12) VH: DVQLVESGGGLVQPGGSRRLSCAASGFTFSSFGMHWVRQAPEKGLEWVAYIRSGSDIIYYADTVKGRFTISRDNPENTLFLEMTRLRSEDTAMYYCARSGTTVPFDYWGQGTSLTVSS VL: not shown | binding result (TDP-219 peptide): no binding; binding result (TDP-214 peptide): no binding; binding result (TDP-220 peptide): no binding; binding result (TDP-210 peptide): no binding; binding result (TDP-222 peptide): no binding; binding result (TDP-216 peptide): no binding
3.8 O.D. (405 nm) | 1.2 O.D. (405 nm) | binds | no binding | no binding | no binding | no binding | no binding | no binding | no binding | no binding | no binding | no binding | no binding | no binding | no binding | no binding | no binding | no binding | < 0.01 | ACI-7062-415C4-Ab1 (antibody, IgG1, V domains shown, also called 415C4C6; clone 14) VH: QVTLKESGPGILQPSQTLSLTCSFSGFSLSTYGIGVGWIRQPSGKGLEWLAHIWWNDNKYYKTALKSRLTISKDTSNNQVFLKIASVDTADSATYYCARVYGNLYYFGYWGQGTTLTVSS VL: DVLMTQTPLSLPVSLGDQASISCRSSQSIVHSTGNTYLEWYLQKPGQSPKLLIYKVSNRFSGVPDRFSGSGSGTDFTLKISRVEAEDLGVYYCFQGSRVPTFGAGTKLELKR | binding result (TDP-219 peptide): no binding; binding result (TDP-214 peptide): no binding; binding result (TDP-220 peptide): no binding; binding result (TDP-210 peptide): no binding; binding result (TDP-222 peptide): no binding; binding result (TDP-216 peptide): no binding

From US20220025023A1 (AC IMMUNE, published 2022)
